From the nanobody polyreactivity screen of Harvey et al. (2022)

Experiment: yeast display, Sf9 membrane polyspecificity reagent, FACS + sequencing; frameworks hold sequencing errors
In short: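 Nanobodies came from a synthetic yeast display library in Saccharomyces cerevisiae BJ5465, induced with galactose for 36–48 hours and stained for 1 hour at 4 °C with 10% biotinylated, detergent-solubilized Sf9 membrane reagent. Cells were enriched on streptavidin microbeads and then FACS-sorted, with low and high (top ~1%) gates set on anti-HA fluorescence for expression and streptavidin fluorescence for reagent binding. Each polyreactivity label reflects the gate a clone came from. Genes were amplified by colony PCR, sequenced by MiSeq 2 × 250 and filtered by CDR length.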

Sequence | polyreactivity (PSR sort gate)
QVQLHESGGGLVLAGGSLRLSCSASGNISVYGSMGLYRQAPGKEREFVATIDPGTNTNYADSVKDRFSISRDNAKHTVYLQMNSLKPEDTAVYYCAVEAGSDWPYRYWGHGTQVTVSS | low polyreactivity
QVQLHESGGGLVQAGGSLRLGCAPSGNISHAAYMGWYRQAPGKEREFVAAIAAGSNPNYADSVKGRFTISRDNAKNTVYLQMNSLKPEDTAVFYCAVASYARVQYEYWGQGTQVTVNS | low polyreactivity
QVQLHESGGGLVQAGGSLRLSCAASGTISVTYNMAWYRQAPGKERECVAGNSTGATTNYADSVKGRFTIRRDNAKNTVYLQMNSLKPEDTAVYYCAAHIYRQDHFYYWGQGTQVTVSS | low polyreactivity
QVQLHESGGGLVQAGGSLRLSCAASGTISYAGPRGWYRQAPGKERECVAGIGVGSNTNYADSVKGRYTIIRDNAKNTVYLQMNILKPEVTAVYYCAVGGYAPLGRPYWGQGTQVTVSS | low polyreactivity
QVQLHESGGGLVQEGGSQRLSCAASGNIFYTYAMRWYRHAPGKEREFDATINHGTSINYADSVKGRFTISRDNAKNTVYLQMNSLKPEDTAVYYCAADLSWTDNLFYWGQGTQVTVSS | low polyreactivity
QVQLHQSGGGLVQAGGTLRLSCAPSGNISVTYNMGWYRQAPGKEREFVAGNSTGATTNYADSVTGRFTISRDNAKNSVYLQMNSLKPEDTAVYYCAAHIYRQDHFYYWGQGTQVTVSS | low polyreactivity
QVQLIESGGGLVQAGGSLRLSCAASGRTFYVNAMGWYRQAPGKERELVAAIRSGGSTSYADSVKGRFTISRDNAKNTVYLQMNSLKPEDTAVYYCAAKSGLDLYYGLGGYWGQGTQVTVSS | high polyreactivity
QVQLIESGGGLVQAGGSLRLSCAASGSIFAANAMGWYRQAPGKEREFVASISYTGASTYADSVKGRFTISRDNAKNTVYLQMKSLKPEDTAVYYCAKDGYWTGLDPYYYWGQGTQVTVSS | low polyreactivity
QVQLIESGGGLVQAGGSLRLSCAASGSIFQYTMGWYRQAPGKERELVAAITRSGSSTYYADSVKGRFTISRDNAKNTVYLQMNSLKPEDTAVYYCAHTIRRVLGYGSWGQGTQVTVSS | high polyreactivity
QVQLKESCGGLVQAGGSLRLSCAASGTITYAPHKGWYRQAPGKERELVAGITIGGTTYYADSVKGRFTISRDNAKNTVYLQMNSLSPGDTAVYYCAAHSEQYTPFYYWGQGTQVTVSS | low polyreactivity
QVQLLDSGGGLVQAGGSLRLSCAASGSIFYLNAMGWYRQAPVKEREFVAAITLRGGSSYYADSVKGRFTISRDYANNTFYLQMKSLKPEDTAFYYCNAGVALTYVHDGDYWGQGTQVTVSS | low polyreactivity
QVQLLESCGGLVQAGGSLRLSCAASGRIFSYYVMGWYRQAPGKERELVAAITSGGSTNYADSVKGRFTISRDNAKISVYLQLTSLKPVDTAVYYFNRAYTYINRLYGYWGQGTEVTVSS | high polyreactivity
QVQLLESGGGIVQAGGSLRLSCAASGRTFYVYGMGWYRQAPGKERELVAAISKRGDNTYYADAVKGRFTISRDNAKNTVYLQMNSLKPEDTAVYYCNVKLYGGRSDYWGQGTQVTVSS | high polyreactivity
QVQLLESGGGLDQAGGSLRLSTAASGSTFGVYAMGWYRQARGKEREMVAAISRRGGSTYYADSVKGRFTISRDNAKNTVYLQMNSLKPEDTAVYYCAARGGQMEYWGQGTQVTVSS | high polyreactivity
QVQLLESGGGLFQTGGSLRLSCAASGRTFWNYAKGWYRQAPGKERELVAVIRFSDGSTYYADSVKGRFTISRDNAKNTVYLQMNSLKPQDTAVYYSAAKGPRRWGSGFDYWGQGTQVTVSS | low polyreactivity
QVQLLESGGGLLQAGGSLRLSCAASGRIFKFNAMGWYRQAPGKERELVAAISKRGGSTYYADSVKGRFTISRDNAKNTVYLQMNSLNPEDTAVYYCAAPIYNGYASWQVYYWGQGTQVTVSS | high polyreactivity
QVQLLESGGGLVKAGGSLRLTCADSGRTLYRYAMGWYRQAPGKERELVAAINQSGGRTYYADSVKGRFTISRDNAKNTVYLQMNSLKPDDTAVYYCNTASSRAFLTHGRYGRSDYWGQGTQVTVSS | high polyreactivity
QVQLLESGGGLVPARGSLRLSCAASGRIFPQYVMGWYRQAPGKEREFVATISYSGGRTYYADSVKGRFTISRDNAMNTVYVQMNSLKPEDTAVYDCAAGTSAGWADDYWGQGTQVTVSS | high polyreactivity
QVQLLESGGGLVQAGGILRLSCAASGRTLHYSAMGWYRQAPGIERELVAAISARGGRTYYADSVKGRFTISRDNAKNTVYLLMQTLKPEDTAVYYCAAAGYITRYDRYDYWGQGTHVTVSS | high polyreactivity
QVQLLESGGGLVQAGGSLRLSCAASASTFWFYAMGWYIQAPGKERELVAAISSTGSTNYADSVKGRFTISRDNAKNTVYLQMNSLKPEDTAVYYCATQEGPHKLDPRGYYWGQGTQVTVSS | low polyreactivity
QVQLLESGGGLVQAGGSLRLSCAASGGTFRVYAMGWYRQAPVKEWELVAAISSGGSTNYADSVKGRFTISRDNAKNTVYLQMNSLIPEDTAVSYCNAKYRYRFARSPIYFYWGQGTQVTVSS | low polyreactivity
QVQLLESGGGLVQAGGSLRLSCAASGITFPYYAMGWYRQAPGKERELVAAISSSGGSTYYADSVKGRFTISRDIAKNTVYLQMNSLKPEDTAVYYCAAQRYINYDYWGQGTQVTVSS | high polyreactivity

Sequence | polyreactivity (PSR sort gate)
QVQLLESGGGLVQAGGSLRLSCAASGLIFAGNAMGWYRQAPGKERELVAAISSSGGRTYYADSVKGRFTFSRDNAKNTVYLQMYSLKPEDTAVYYCAAVRTGYYRQYDYWGQGTQVTVSS | high polyreactivity
QVQLLESGGGLVQAGGSLRLSCAASGLIFKYYAMGWYRQAPGKERELVAVITSSGGSTYYADSVKGRFTISRDNANNTVYLQMNSLKPEDTAVYYCAARRVRWPYDYWGQGTQVTVSS | high polyreactivity
QVQLLESGGGLVQAGGSLRLSCAASGLIYVNNPMGWYRKATGKETELVATISSGVSTNYADSVKGRFTISRENAKNSVYLHMNSLKPEDTAVYYCNKGQTVSRGYRLYERYDYWGQGTQVTVSS | low polyreactivity
QVQLLESGGGLVQAGGSLRLSCAASGLTFGWYAMGWYRQAPGKERELVAAITWNSGSTYYADSVKGRFTISRDNAKNTVYLQMNSLKPVDTAVYYCAAGYQDSQEYDYWGQGTQVTVSS | low polyreactivity
QVQLLESGGGLVQAGGSLRLSCAASGRIFLRYVMGWYRQAPGKERELVAAIRSNGGSTYADSVKGRFTSSRDNAKNTVYLHMNSLKPEDTAVYYCAARYVITKGSFVVGYGYWGQGTQVTVSS | high polyreactivity
QVQLLESGGGLVQAGGSLRLSCAASGRIFNYNVMGWYRQAPGKERELVAAISRRGTSTFYADSVKGRFTISRDNAKNTVYLQMNSLIPVDTAVYYCAADFYSNHYDYWGQGTQVTVSS | high polyreactivity
QVQLLESGGGLVQAGGSLRLSCAASGRIFVSNAMGWYRQAPGKERELVAAISKSGGRTYYADSVKGRFTISRDNAKNTVYLQMNSLKPEDTAVYYCAADIFTQGFDYWGQGTQVTVSS | high polyreactivity
QVQLLESGGGLVQAGGSLRLSCAASGRIFYRYAMGWYRKAPGKERELVPAISRTGSRTYYADSVKGRFTISRDNAKNTVYLQMNSLKPEDTAVYYCNKVSAPAEFRSRGYWGQGTQVTVSS | high polyreactivity
QVQLLESGGGLVQAGGSLRLSCAASGRTFDWNMGWYRQAPGKERELVAGITFSVDSTYYADSVKGRFTISRDNAKNTVYLQMNSLKPEDTAYWGQGTQVSVSS | low polyreactivity
QVQLLESGGGLVQAGGSLRLSCAASGRTFRSYVMVWYRQAPGKERELVAAISRSGGSTYYADSVKGRFTISRDNAKNTVYLQMNSLKPEDTAVYYCATKRVLTGYDSWGQGTQVTVSS | high polyreactivity
QVQLLESGGGLVQAGGSLRLSCAASGSIFAYYAMGWYRQAPGKERELVAAISGTGGSTNYADSVKGRFTISRDNAKNTVYLQMNSLKPEDTAVYYCAKDYSFQWRNEFNLAGEYVYWGQGTQVTVSS | low polyreactivity
QVQLLESGGGLVQAGGSLRLSCAASGSIFRGNAMGWYRQAPGKERELVAAISQRGTSTYYADSVKGRFTISRDYAKNTVYLQMNSLKPEDTAVYYCNALYWQIGDDYWGQGTQVTVSS | high polyreactivity
QVQLLESGGGLVQAGGSLRLSCAASGSTFDDYAMGWYRQAPGKEREFVAAIDWSGGSTYYADSVKGRFTISRDNAKYSVYLQMKSLKPEVTAVYYCNADPDVSFDYWGQGTQVTVSS | low polyreactivity
QVQLLESGGGLVQAGGSLRLSCAASGSTFEANTMGWYSQAPGKDRELVASISSSGGSTNYADSVKGRFTISRDNAKNTVYLQMNRLKQEDTAVYYCAVRCTYARWNWRTADSSRDYWGQGTQVTVSS | low polyreactivity
QVQLLESGGGLVQAGGSLRLSCAASGSTFPWYTMGWYRQAPGKERELVAPISNGGSTNYADSVKGRFTISRDNAKNTVYLQMNSLIPEDTAVYYCNARIPPYRWYQVSRGHGYWGQGTQVTVSS | high polyreactivity
QVQLLESGGGLVQAGGSLRLSCAASGSTLNVYGMGWYRQAPGQERELVAAINRDGITYADSVKGRCTISRDNAKNTVYLQMNSLKPEDTAVYYCAGDPYDNSVPGWRRNMDYWGQGTQVTVSS | low polyreactivity
QVQLLESGGGLVQAGGSLRLSCAASGWYRQAPGKERELVAAITYSGGSTYYADSVKGRFTISRDNAKNTVYLQMNSLKPEDTAVYYCAVATGLLYKSHGYWGQGTQVTVSS | low polyreactivity
QVQLLESGGGLVQAGGSLRLSCAASGYIILRNAMGWYRQAPGKERELVAAIRRTGGSTYYADSLKGRFTISRDNAKNTVYLLLNSLKPEDTAVYSCAKRSYTGFEYWGQGTQVTVSS | low polyreactivity
QVQLLESGGGLVQAGGSLRLSCAATGRIFAPYTMGWYRQAPGTEMEMFAVISKRGGNTYYADSVKGRFTISRDNAKNTVYLQMNSLKPEATAVYFCNADWQFRVYLGGPGTHGYDYWGQGTQVTVSS | low polyreactivity
QVQLLESGGGLVQAGGSLRLSCAPSGRTLVHYGMGWYRHAPGKERELVAAISYSGGRTYYADSVKGRVTISRDNAKNTVYLQMNSLKPEDTAVYYCAKDFGSYQRRYGYWGQGTQVTVSS | high polyreactivity
QVQLLESGGGLVQAGGSLRLSCMASGSILGDRMSWYLQPPGKEHELVATIYDGGITYYADSMKGRFTISRDNAKNTVYLQMNSLRPEDTAVYYCGASFEGYRYNVYCGQGTQVTVSS | low polyreactivity
